Where a chain is given by its changes, count along the chain named. Where “and” joins values, the source holds several entries; their conditions need not be identical. Identical values can stand only once.
T1: Hexa-His-tagged FkpB (wild type) (E. coli, UniProt P0AEM0 1-149)
T1 chain: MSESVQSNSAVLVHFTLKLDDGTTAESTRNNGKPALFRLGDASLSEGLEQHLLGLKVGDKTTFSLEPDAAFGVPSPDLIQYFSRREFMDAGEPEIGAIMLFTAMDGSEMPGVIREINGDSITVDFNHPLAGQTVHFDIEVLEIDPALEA

T2: Hexa-His-tagged PpiC M57A (E. coli)
T2 chain: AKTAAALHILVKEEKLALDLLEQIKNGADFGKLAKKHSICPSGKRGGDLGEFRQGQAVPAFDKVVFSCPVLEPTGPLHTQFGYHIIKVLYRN

T3: Hexa-His-tagged PpiC F81A (E. coli)
T3 chain: T2 chain with A57M, F81A

B1: Hexa-His-tagged FkpB (wild type) (enzyme, E. coli, UniProt P0AEM0 1-149, looked up)
chain: T1 chain
notes: FkpB, FKBP-type peptidyl-prolyl cis/trans isomerase, E. coli; minimal coding region of the fkpB gene in pET24b; also called wild-type FkpB; source: E. coli T7 express derivative lacking all six PPIs (SR21984), IPTG-induced; in lysate on Ni-NTA for co-elution; purified (Ni-NTA) for ITC; not shown: His6, C-terminal, kept
B2: RpoE peptide P3 (peptide)
peptide: FRAREAIDNKVQPLIRR
notes: peptide covering conserved region 4 of RpoE, E. coli, including R178
B3: RseA peptide Rse3 (peptide)
peptide: IIEEEPVRQPATL
notes: peptide from the conserved regions of the N-terminal domain of RseA, E. coli
B4: RseA peptide Rse1 (peptide, UniProt P0AFX7 2-29, looked up)
peptide: QKEQLSALMDGETLDSELLNELAHNPEM
notes: peptide corresponding to amino acid 2-29 of N-RseA (N-terminal domain of the anti-sigma factor RseA), E. coli
B5: Hexa-His-tagged PpiC (wild type) (enzyme, E. coli, UniProt P0A9L5 1-93, looked up)
chain: MAKTAAALHILVKEEKLALDLLEQIKNGADFGKLAKKHSICPSGKRGGDLGEFRQGQMVPAFDKVVFSCPVLEPTGPLHTQFGYHIIKVLYRN
notes: PpiC, parvulin peptidyl-prolyl cis/trans isomerase, E. coli; coding region of the ppiC gene in pET24b; The tag is called cleavable; also called wt PpiC; wild-type PpiC; source: E. coli T7 express derivative lacking all six PPIs (SR21984), IPTG-induced; in lysate on Ni-NTA for co-elution; purified (Ni-NTA) for ITC; not shown: His6, C-terminal, kept
B6: RpoE peptide P2 (peptide)
peptide: KVASLVSRYVPSGDV
notes: peptide derived from conserved region 2 of RpoE, E. coli
B7: RpoE peptide P4 (peptide)
peptide: AAIMDCPVGTVRSRI
notes: peptide derived from conserved region 4 of RpoE, E. coli
B8: AhpC-derived peptide (peptide)
peptide: RATFVVDPQGI
notes: peptide from AhpC (alkyl hydroperoxide reductase subunit C), E. coli; also called AhpC peptide
B9: S2-derived peptide (peptide)
chain: TRYWNPKMKPFIFGA
modifications: This paper prints neither letters nor limits. Limits 20-34 are recalled from the SlyD/FKBP S2 peptide of the cited work (ref. 12), as are the check residues. Terminal modifications unknown.
B10: RpoE peptide P1 (peptide)
peptide: YLVAQGRRPPSSDVD
notes: peptide corresponding to the C-terminal end of conserved region 2.4 of RpoE, E. coli

What was measured:
[1] = molecular target: B3; assay: ITC; Nano ITC; 200 μM peptide in the cell titrated with 2 mM protein, 25 injections of 2 μL, 20 °C, 20 mM sodium phosphate pH 7.5, 100 mM NaCl; 1:1 binding model; conditions: both partners purified
[2] = molecular target: B4; assay: as above; conditions: both partners purified
[3] = molecular target: B8; assay: as above; conditions: both partners purified
[4] = molecular target: B1; assay: as above; conditions: both partners purified
[5] = molecular target: T1, Hexa-His-tagged FkpB (wild type); assay: ITC
[6] = molecular target: T2, Hexa-His-tagged PpiC M57A; assay: ITC
[7] = molecular target: T3, Hexa-His-tagged PpiC F81A; assay: ITC
[8] = molecular target: B5; assay: ITC; Nano ITC; 200 μM peptide in the cell titrated with 2 mM protein, 25 injections of 2 μL, 20 °C, 20 mM sodium phosphate pH 7.5, 100 mM NaCl; 1:1 binding model; conditions: both partners purified

In the case of B1, the dH [1] is reported as -1.48 kcal/mol, the dH [2] is reported as -2.18 kcal/mol and the “stoichiometry N” value [2] is reported as 1. For the same binder, the “stoichiometry N” value [3] was 0.99.

In the case of B2, the Kd [4] is reported as 19 µM.

Binder B3 has a Kd [4] of 13 µM.

Binder B4 has a Kd [4] of 15.1 µM.

In the case of B5, the “stoichiometry N” value [3] is reported as 0.99.

For B6, the Kd [4] was 10.7 µM.

B7 gave a Kd [4] of 10.3 µM.

B8 showed a Kd [5] of 30.3 µM, a Kd [6] of 68.8 µM and a Kd [7] of 77.6 µM. The Kd [8] was 30 µM and 47.4 µM and the Kd [4] was 47 µM.

With B9 the Kd [4] was 18.8 µM.

In the case of B10, the Kd [4] is reported as 38.1 µM.

Reference: publication PMC7353009, “Identification of Substrates of Cytoplasmic Peptidyl-Prolyl Cis/Trans Isomerases and Their Collective Essentiality in Escherichia Coli” (International Journal of Molecular Sciences, 2020)
